In paper PMC2950840:

Molecular target: SARS-CoV 3C-like protease (3CL^pro) (SARS-CoV (strain CUHK-Su10)) (UniProt P0C6X7)
Assay: SEC; […] (20 mM Tris, 20 mM NaCl, pH 7.8); […]

Substance: SARS-CoV 3C-like protease (3CL^pro) (from UniProt P0C6X7 3241-3546) (enzyme)
- stoichiometry N: 2
